Consider three substances from patent US20200339680A1.

For experiment [1], the target named is human TMEM106B (human) (UniProt Q9NUM4). The experiment in a line: FACS A549.
For experiment [2] the target is unchanged. The experiment in a line: FACS HeLa.
Experiment [3] has the same target. The experiment in a line: FACS U251.
In another experiment the target is mouse TMEM106B (mouse) (UniProt Q80X71). The experiment in a line: FACS Neuro2a.

For the substance Negative ctrl #1 (antibody), the MFI came out at 148 MFI with human TMEM106B (human) [1], 152 MFI in the experiment with human TMEM106B (human) [2], 165 MFI with human TMEM106B (human) [3] and 220 MFI with mouse TMEM106B (mouse).

In the case of Negative ctrl #2 (antibody), the MFI stood at 162 MFI with human TMEM106B (human) [1], 149 MFI with human TMEM106B (human) [2], 165 MFI with human TMEM106B (human) [3] and 235 MFI in the experiment with mouse TMEM106B (mouse).

For the substance Negative ctrl #3 (antibody), the MFI in the experiment with human TMEM106B (human) [1] stood at 95 MFI; with human TMEM106B (human) [2] it was 143 MFI; in the experiment with human TMEM106B (human) [3] it was 164 MFI; in the experiment with mouse TMEM106B (mouse), 216 MFI.
